{
  "source": "patent US20110143428A1",
  "about": "(Genentech, published 2011)",
  "key": {"[1]": {"biological_target": "T1, mature VEGF-C (R&D Systems) (human, UniProt P49767 103-227)", "T1 construct": "Bought from R&D Systems; also called human VEGF-C matured form (R&D systems)", "T1 sequence": "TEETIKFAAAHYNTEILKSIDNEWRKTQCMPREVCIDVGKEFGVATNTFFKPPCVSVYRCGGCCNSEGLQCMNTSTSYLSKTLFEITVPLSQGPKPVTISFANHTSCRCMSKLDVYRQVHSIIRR", "test": "SPR, Biacore (IgG1): human IgG captured on CM5 chip, VEGF-C injected, 1:1 Langmuir fit"}, "VEGF-C C137S [2]": {"biological_target": "T2, VEGF-C C137S", "T2 construct": "also called hVEGF-C C137S; human VEGF-C C137S", "T2 VEGF-C": "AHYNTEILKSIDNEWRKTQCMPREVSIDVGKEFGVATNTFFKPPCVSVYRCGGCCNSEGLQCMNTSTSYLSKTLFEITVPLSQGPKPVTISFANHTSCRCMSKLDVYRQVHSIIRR", "test": "SPR, Biacore (IgG1): human IgG captured on CM5 chip, VEGF-C injected, 1:1 Langmuir fit"}, "VEGF-C C137S [3]": {"biological_target": "T2, VEGF-C C137S", "test": "competition ELISA: three-fold serial dilutions of VC4.5 IgG incubated 2 h on hVEGF-C C137S coated plate (5 ug/ml), then VC4.5 phage for 15 min, anti-M13-HRP, OD450 in %; competitor: VC4.5 phage"}, "[4]": {"biological_target": "T3, biotinylated human VEGF-C (human, UniProt P49767 112-227, limits assumed, biotin conjugated (site not stated))", "T3 construct": "Panning used the matured form from R&D Systems; also called biotin conjugated VEGF-C; biotinylated VEGF-C", "T3 sequence": "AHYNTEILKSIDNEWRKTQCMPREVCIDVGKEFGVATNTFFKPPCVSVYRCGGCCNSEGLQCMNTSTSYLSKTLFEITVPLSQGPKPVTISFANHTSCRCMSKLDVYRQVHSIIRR", "test": "receptor blocking ELISA: fixed biotin-VEGF-C incubated 2 h with serial dilutions of IgG, unbound VEGF-C captured on immobilized VEGFR3-Fc, streptavidin-HRP, OD450; blocked interaction VEGF-C/VEGFR3. The value stands in brackets after the curve's name in the legend box; the quantity is not named on the sheet, the value agrees with the midpoint of the curve"}, "VEGF-C C137S [5]": {"biological_target": "T2, VEGF-C C137S", "test": "phage competition ELISA as in paragraph 556 with human VEGF-C C137S as antigen: phage-displayed clone VC4.5, soluble antigen varied, anti-M13-HRP, OD450"}, "hVEGF-C": {"biological_target": "T4, hVEGF-C (human, UniProt P49767)", "T4 construct": "unlabelled; also called human VEGF-C", "T4 sequence (VEGF-C, looked up)": "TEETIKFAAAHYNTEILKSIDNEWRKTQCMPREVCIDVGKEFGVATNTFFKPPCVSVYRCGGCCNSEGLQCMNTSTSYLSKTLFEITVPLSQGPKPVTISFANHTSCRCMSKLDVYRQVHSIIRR", "test": "phage competition ELISA: phage-displayed clone VC4.5 incubated with increasing soluble hVEGF-C, unbound phage captured on hVEGF-C coated plate, anti-M13-HRP, OD450"}},
  "data": [
    {"binder": "anti-VEGF-C antibody hVC4.5 (hIgG1) (antibody, V domains shown, Tested as human IgG1; also called VC4.5 human IgG1 form; human backbone anti-VEGF-C antibody) VH: EVQLVESGGGLVQPGGSLRLSCAASGFTFTDNWIHWVRQAPGKGLEWVAVISPYSGATYYADSVKGRFTISADTSKNTAYLQMNSLRAEDTAVYYCARDADYKYAFWAFDYWGQGTLVTVSS VL: DIQMTQSPSSLSASVGDRVTITCRASQDVSTAVAWYQQKPGKAPKLLIYSASFLYSGVPSRFSGSGSGTDFTLTISSLQPEDFATYYCQQSYTTPPTFGQGTKVEIKR", "values": [
      {"measurement": "Kd", "setting": "[1]", "value": 140, "unit": "nM"},
      {"measurement": "Kd", "setting": "VEGF-C C137S [2]", "value": 1.1, "unit": "nM"},
      {"measurement": "IC50 (read off the curve)", "setting": "VEGF-C C137S [3]", "value": "~7", "unit": "nM"},
      {"measurement": "IC50", "setting": "[4]", "value": 0.54, "unit": "nM"},
      {"measurement": "IC50", "setting": "VEGF-C C137S [5]", "value": 5.4, "unit": "nM"},
      {"measurement": "IC50", "setting": "hVEGF-C", "value": 1.7, "unit": "nM"}
    ]}
  ]
}
